Data: patent US20170319675A1

Tests used:
Assay in all cases: REVEAL MHC-peptide binding assay
HLA-DR5 (human) = target: HLA-DR5 (human)
HLA-DR2 (human) = target: HLA-DR2 (human)
HLA-DR1 (human) = target: HLA-DR1 (human)
HLA-DR4 (human) = target: HLA-DR4 (human)
HLA-DR7 (human) = target: HLA-DR7 (human)

Binder	Relative Binding Score (% compared to the positive control) (HLA-DR5 (human))	Relative Binding Score (% compared to the positive control) (HLA-DR2 (human))	Relative Binding Score (% compared to the positive control) (HLA-DR1 (human))	Relative Binding Score (% compared to the positive control) (HLA-DR4 (human))	Relative Binding Score (% compared to the positive control) (HLA-DR7 (human))
TLGEFLKLDRERAKN (peptide, from a related filing) [BIR-002]	104	0.05	40.1	6.12	0.27
TFSYVDPVITSISPKYG (peptide, from a related filing) [MET-005]	0.12	0.28	0.87	5.89	3.69
